{
  "source": "patent US20090155873A1",
  "about": "“BIOFUEL PRODUCTION” (BIO ARCHITECTURE LAB, INC., priority 2007, published 2009)",
  "key": {"[1]": {"assay": "Sequential reaction of diol dehydrogenase and diol dehydratase on butyroin (GC-MS)", "assay_type": "biochemical", "settings": "37° C., 40 hours, NADH, coenzyme B12, GC-MS, FIGS. 26-27", "description": "Diol dehydrogenase ddh from Klebsiella pneumoniae MGH 78578 and diol dehydratase pduCDE from Klebsiella pneumoniae MGH 78578 were cloned into a bacterial expression vector and expressed and purified on a Ni-NTA column, as described in Example X except that 1 mM of 1,2-propanediol was added at all time during the expression and purification of diol dehydratase. The large, medium, and small subunits of the pduCDE polypeptide are encoded by the nucleotide sequences of SEQ ID NOs:103, 105, and 107, respectively, and the polypeptide sequence are set forth in SEQ ID NOs: 104, 106, and 108, respectively.\nThe ddh3 and pduCDE polypeptides were incubated with butyroin and their appropriate cofactors, then assayed using gas chromatography-mass spectrometry (GC-MS) for their ability to perform sequential reactions resulting in the product 4-octanone. The reaction mixture was incubated at 37° C. for 40 hours in a 0.6 mL eppendorf tube with minimal head space. The reaction product was extracted with an equivalent volume of ethyl acetate, stored in a glass vial, and sent to Thermo Fischer Scientific Instruments Division for compositional analysis by GC-MS."}, "[2]": {"assay": "NADH Production Assay (oxidation of 4-octanol)", "assay_type": "biochemical", "settings": "NAD+, 30° C., FIG. 30A", "description": "Various secondary alcohol dehydrogenases (2ADHs) were isolated from Pseudomonas putida KT2440, Pseudomonas fluorescens Pf-5, and Klebsiella pneumoniae MGH 78578. All vectors were transformed in BL21(DE3) competent cells and expression of the genes encoding the proteins of interest was induced with IPTG (via the T7 promoter). The cells were lysed, proteins were extracted and then purified on Ni-NTA columns. Final protein concentration in the Ni-NTA eluate was diluted to 0.15 mg/mL prior to assays.\n[…] consumption and production assays were performed using a THERMOmax microplate reader in the kinetic mode, monitoring the NADPH absorbance peak at 340 nm until the reaction reached equilibrium. […] These reaction conditions are found in Table 4 below."}, "[3]": {"assay": "Kinetic testing of oxidation and reduction reactions with 2ADH-16", "assay_type": "biochemical", "settings": "0.04 mg/mL enzyme, pH 6.5(red) or 9.0(ox), 25 C, FIGS. 35 and 36", "description": "Similar to above, kinetic testing for both oxidation and reduction reactions was performed on various substrates using 2ADH-16. The conditions for these studies were as follows: 0.04 mg/mL enzyme, 0.25 mg/mL cofactor, 20 mM Tris HCl Buffer pH 6.5(red) or 9.0(ox), T=25 C, 100 uL total volume was used."}, "[4]": {"assay": "TBA assay for secreted alginate lyase", "assay_type": "cell-based", "settings": "BL21 cells, LB+2% alginate+0.1 mM IPTG, overnight culture media, FIG. 47", "description": "The Vs24254 (SEQ ID NO: 32) region of Vibro spendidus encodes a functional external alginate lyase. BL21 cells expressing Vs24254 from the pET28 vector were capable of breaking down alginate in the growth medium. […] This assay was performed by spinning down an overnight culture grown on the above mentioned media. The media was then mixed in a 1:1 ratio with 0.8% thiobarbituric acid (TBA), heated for 10 min at 99 degrees Celsius, and assayed for pink coloration. […] Wildtype E. coli cells not expressing any recombinant proteins show the same coloration as the negative control Vs24259 (data not shown)."}},
  "data": [
    {"molecule": "ddh3: diol dehydrogenase isolated from Klebsiella pneumoniae MGH78578, SEQ ID NO:102 (protein, Klebsiella pneumoniae MGH78578) MKKVALVTGAGQGIGKAIALRLVKDGFAVAIADYNDATAKAVASEINQAGGHAVAVKVDVSDRDQVFAAVEQARKTLGGFDVIVNNAGVAPSTPIESITPEIVDKVYNINVKGVIWGIQAAVEAFKKEGHGGKIINACSQAGHVGNPELAVYSSSKFAVRGLTQTAARDLAPLGITVNGYCPGIVKTPMWAEIDRQVSEAAGKPLGYGTAEFAKRITLGRLSEPEDVAACVSYLASPDSDYMTGQSLLIDGGMVFN", "values": [
      {"measurement": "product formed from butyroin by sequential reactions", "setting": "[1]", "value": "4-octanone was produced from butyroin"}
    ]},
    {"molecule": "pduCDE: diol dehydratase from Klebsiella pneumoniae MGH 78578, subunits SEQ ID NOs:104, 106, 108 (protein, Klebsiella pneumoniae MGH78578) chain 1: MRSKRFEALAKRPVNQDGFVKEWIEEGFIAMESPNDPKPSIRIVNGAVTELDDKPVEQFDLIDHFIARYGINLARAEEVMAMDSVKLANMLCDPNVKRSDIVPLTTAMTPAKIVEVVSHMNVVEMMMAMQKMRARRTPSQQAHVTNIKDNPVQIAADAAEGAWRGFDEQETTVAVARYAPFNAIALLVGSQVGRPGVLTQCSLEEATELKLGMLGHTCYAETISVYGTEPVFTDGDDTPWSKGFLASSYASRGLKMRFTSGSGSEVQMGYAEGKSMLYLEARCIYITKAAGVQGLQNGSVSCIGVPSAVPSGIRAVLAENLICSALDLECASSNDQTFTHSDMRRTARLLMQFLPGTDFISSGYSAVPNYDNMFAGSNEDAEDFDDYNVIQRDLKVDGGLRPVREEDVIAIRNKAARALQAVFAGMGLPPITDEEVEAATYAHGSKDMPERNIVEDIKFAQEIINKNRNGLEVVKALAKGGFPDVAQDMLNIQKAKLTGDYLHTSAIIVGEGQVLSAVNDVNDYAGPATGYRLQGERWEEIKNIPGALDPNELG chain 2: MEINETLLRQIIEEVLSEMKSGADKPVSFSAPAASVASAAPVAVAPVSGDSFLTEIGEAKPGTQQDEVIIAVGPAFGLAQTANIVGIPHKNILREVIAGIEEEGIKARVIRCFKSSDVAFVAVEGNRLSGSGISIGIQSKGTTVIHQRGLPPLSNLELFPQAPLLTLETYRQIGKNAARYAKRESPQPVPTLNDQMARPKYQAKSAILHIKETKYVVTGKNPQELRVAL chain 3: MNTDAIESMVRDVLSRMNSLQDGITPAPAAPTNDTVRQPKVSDYPLATRHPEWVKTATNKTLDDLTLENVLSDRVTAQDMRITPETLRMQAAIAQDAGRDRLAMNFERAAELTAVPDDRILEIYNALRPYRSTQAELLAIADDLEHRYQARLCAAFVREAAGLYIERKKLKGDD", "values": [
      {"measurement": "product formed from butyroin by sequential reactions", "setting": "[1]", "value": "4-octanone was produced from butyroin"}
    ]},
    {"molecule": "2ADH-2: secondary alcohol dehydrogenase isolated from Pseudomonas putida KT2440, SEQ ID NO:112 (protein, Pseudomonas putida KT2440) MSMTFSGQVALVTGAGAGIGRATALAFAHEGMKVVVADLDPVGGEATVAQIHAAGGEALFIACDVTRDAEVRQLHERLMAAYGRLDYAFNNAGIEIEQHRLAEGSEAEFDAIMGVNVKGVWLCMKYQLPLLLAQGGGAIVNTASVAGLGAAPKMSIYSASKHAVIGLTKSAAIEYAKKGIRVNAVCPAVIDTDMFRRAYQADPRKAEFAAAMHPVGRIGKVEEIASAVLYLCSDGAAFTTGHCLTVDGGATAI", "values": [
      {"measurement": "oxidation of 4-octanol measured by NADH production", "setting": "[2]", "value": "catalyzes the oxidation of 4-octanol in the presence of NAD+"}
    ]},
    {"molecule": "2ADH-16: secondary alcohol dehydrogenase isolated from Klebsiella pneumoniae subsp. pneumoniae MGH 78578, SEQ ID NO:138 (protein, Klebsiella pneumoniae subsp. pneumoniae MGH78578) MTAFHNKSVLVLGGSRGIGAAIVRRFVADGASVVFSYSGSPEAAERLAAETGSTAVQADSADRDAVISLVRDSGPLDVLVVNAGIALFGDALEQDSDAIDRLFHINIHAPYHASVEAARRMPEGGRIIVIGSVNGDRMPLPGMAAYALSKSALQGLARGLARDFGPRGITVNVVQPGPIDTDANPENGPMKELMHSFMAIKRHGRPEEVAGMVAWLAGPEASFVTGAMHTIDGAFGA", "values": [
      {"measurement": "oxidation and reduction of various substrates", "setting": "[3]", "value": "capable of catalyzing both the oxidation and reduction of a wide variety of substrates"}
    ]},
    {"molecule": "Vs24254: functional external alginate lyase of Vibrio splendidus, SEQ ID NO:32 (protein, listed as Vibrio splendidus) MNKPIFVVVLASLTYGCGGSSSSDSSDPSDTNNSGASYGVVAPYDIAKYQNILSSSDLQVSDPNGEEGNKTSEVKDGNFDGYVSDYFYADEETENLIFKMANYKMRSEVREGENFDINEAGVRRSLHAEISLPDIEHVMASSPADHDEVTVLQIHNKGTDESGTGYIPHPLLRVVWEQERDGLTGHYWAVMKNNAIDCSSAADSSDCYATSYNRYDLGEADLDNFTKFDLSVYENTLSIKVNDEVKVDEDITYWQHLLSYFKAGIYNQFENGEATAHFQALRYTTTQVNGSNDWDINDWKLTIPASKDTWYGSGGDSAAELEPERCESSKDLLANDSDVYDSDIGLSYFNTDEGRVHFRADMGYGTSTENSSYIRSELRELYQSSVQPDCSTSDEDTSWYLDDTRTNATSHELTASLRIEDYPNINNQDPKVVLGQIHGWKINQALVKLLWEGESKPVRVILNSDFERNNQDCNHCDPFSVELGTYSASEEWRYTIRANQDGIYLATHDLDGTNTVSHLIPWGQDYTDKDGDTVSLTSDWTSTDIAFYFKAGIYPQFKPDSDYAGEVFDVSFSSLRAEHN", "values": [
      {"measurement": "TBA assay result (cleavage of alginate in growth medium)", "setting": "[4]", "value": "positive TBA assay result of pink color"}
    ]},
    {"molecule": "Vs24259: putative protein of Vibrio splendidus similar to an alginate lyase, SEQ ID NO:34; negative control (protein, listed as Vibrio splendidus) MKQITLKTLLASSILLAVGCASTSTPTADFPNNKETGEALLTPVAVSASSHDGNGPDRLVDQDLTTRWSSAGDGEWATLDYGSVQEFDAVQASFSKGNQRQSKFDIQVSVDGESWTTVLENQLSSGKAIGLERFQFEPVVQARYVRYVGHGNTKNGWNSVTGLAAVNCSINACPASHIITSDVVAAEAVIIAEMKAAEKARKDARKDLRSGNFGVAAVYPCETTVECDTRSALPVPTGLPATPVAGNSPSENFDMTHWYLSQPFDHDKNGKPDDVSEWNLANGYQHPEIFYTADDGGLVFKAYVKGVRTSKNTKYARTELREMMRRGDQSISTKGVNKNNWVFSSAPESDLESAAGIDGVLEATLKIDHATTTGNANEVGRFIIGQIHDQNDEPIRLYYRKLPNQETGAVYFAHESQDATKEDFYPLVGDMTAEVGDDGIALGEVFSYRIDVKGNTMTVTLIREGKDDVVQVVDMSNSGYDAGGKYMYFKAGVYNQNISGDLDDYSQATFYQLDVSHDQYKK", "values": [
      {"measurement": "TBA assay result (cleavage of alginate in growth medium)", "setting": "[4]", "value": "little or no cleavage of the alginate polymer has occurred"}
    ]}
  ]
}
